According to paper PMC3698527:

Assays:
[1] = biological target: HLA-DP2 with human peptide HU38 (human)
[2] = biological target: HLA-DP2 with human peptide HU19 (human)
[3] = biological target: HLA-DP2 with human peptide HU31 (human)
[4] = biological target: HLA-DP2 with human peptide HU29 (human)
[5] = biological target: HLA-DP2 with human peptide HU35 (human)
[6] = biological target: HLA-DP2 with human peptide HU3 (human)
[7] = biological target: HLA-DP2 with human peptide HU1 (human)
[8] = biological target: HLA-DP2 with human peptide HU39 (human)
[9] = biological target: HLA-DP2 with human peptide HU11 (human)
[10] = biological target: HLA-DP2 with human peptide HU28 (human)
[11] = biological target: HLA-DP2 with human peptide HU25 (human)
[12] = biological target: HLA-DP2 with human peptide HU33 (human)
[13] = biological target: HLA-DP2 with human peptide HU9 (human)
[14] = biological target: HLA-DP2 with human peptide HU20 (human)
[15] = biological target: HLA-DP2 with human peptide HU6 (human)
[16] = biological target: HLA-DP2 with human peptide HU22 (human)
[17] = biological target: HLA-DP2 with human peptide HU17 (human)
[18] = biological target: HLA-DP2 with human peptide HU5 (human)
[19] = biological target: HLA-DP2 with human peptide HU2 (human)
[20] = biological target: HLA-DP2 with human peptide HU24 (human)
[21] = biological target: HLA-DP2 with human peptide HU21 (human)
[22] = biological target: HLA-DP2 with human peptide HU15 (human)
[23] = biological target: HLA-DP2 with human peptide HU10 (human)
[24] = biological target: HLA-DP2 with human peptide HU16 (human)
[25] = biological target: HLA-DP2 with human peptide HU7 (human)
[26] = biological target: HLA-DP2 with human peptide HU8 (human)

With AV9 TCR on the T cell hybridoma AV9 the IL-2 secretion of AV9 hybridoma, 0.5 µg/ml peptide, 75 µM BeSO4 [1] was 5.1 pg/mL, the IL-2 secretion of AV9 hybridoma, 0.5 µg/ml peptide, 75 µM BeSO4 [2] was 4.6 pg/mL and the IL-2 secretion of AV9 hybridoma, 0.5 µg/ml peptide, 75 µM BeSO4 [3] was 1040 pg/mL. For the same substance, the IL-2 secretion of AV9 hybridoma, 0.5 µg/ml peptide, 75 µM BeSO4 [4] was 4.6 pg/mL, the IL-2 secretion of AV9 hybridoma, 0.5 µg/ml peptide, 75 µM BeSO4 [5] was 1040 pg/mL and the IL-2 secretion of AV9 hybridoma, 0.5 µg/ml peptide, 75 µM BeSO4 [6] was 75.1 pg/mL. For the same substance, the IL-2 secretion of AV9 hybridoma, 0.5 µg/ml peptide, 75 µM BeSO4 [7] was 1120 pg/mL, the IL-2 secretion of AV9 hybridoma, 0.5 µg/ml peptide, 75 µM BeSO4 [8] was 68.7 pg/mL and the IL-2 secretion of AV9 hybridoma, 0.5 µg/ml peptide, 75 µM BeSO4 [9] was 5.6 pg/mL. The IL-2 secretion of AV9 hybridoma, 0.5 µg/ml peptide, 75 µM BeSO4 [10] was 4.6 pg/mL, the IL-2 secretion of AV9 hybridoma, 0.5 µg/ml peptide, 75 µM BeSO4 [11] was 847 pg/mL and the IL-2 secretion of AV9 hybridoma, 0.5 µg/ml peptide, 75 µM BeSO4 [12] was 954 pg/mL. It also gave an IL-2 secretion of AV9 hybridoma, 0.5 µg/ml peptide, 75 µM BeSO4 [13] of 48.6 pg/mL, an IL-2 secretion of AV9 hybridoma, 0.5 µg/ml peptide, 75 µM BeSO4 [14] of 4.6 pg/mL and an IL-2 secretion of AV9 hybridoma, 0.5 µg/ml peptide, 75 µM BeSO4 [15] of 4.1 pg/mL. It also gave an IL-2 secretion of AV9 hybridoma, 0.5 µg/ml peptide, 75 µM BeSO4 [16] of 4.1 pg/mL, an IL-2 secretion of AV9 hybridoma, 0.5 µg/ml peptide, 75 µM BeSO4 [17] of 16.3 pg/mL and an IL-2 secretion of AV9 hybridoma, 0.5 µg/ml peptide, 75 µM BeSO4 [18] of 4.6 pg/mL. It also gave an IL-2 secretion of AV9 hybridoma, 0.5 µg/ml peptide, 75 µM BeSO4 [19] of 966 pg/mL, an IL-2 secretion of AV9 hybridoma, 0.5 µg/ml peptide, 75 µM BeSO4 [20] of 4.6 pg/mL and an IL-2 secretion of AV9 hybridoma, 0.5 µg/ml peptide, 75 µM BeSO4 [21] of 48.8 pg/mL. The IL-2 secretion of AV9 hybridoma, 0.5 µg/ml peptide, 75 µM BeSO4 [22] was 49.3 pg/mL.

AV22 TCR on the T cell hybridoma AV22 was tested, and the IL-2 secretion of AV22 hybridoma, 0.5 µg/ml peptide, 75 µM BeSO4 [1] was 5.6 pg/mL, the IL-2 secretion of AV22 hybridoma, 0.5 µg/ml peptide, 75 µM BeSO4 [23] was 5.1 pg/mL and the IL-2 secretion of AV22 hybridoma, 0.5 µg/ml peptide, 75 µM BeSO4 [2] was 4.1 pg/mL. It also gave an IL-2 secretion of AV22 hybridoma, 0.5 µg/ml peptide, 75 µM BeSO4 [3] of 973 pg/mL, an IL-2 secretion of AV22 hybridoma, 0.5 µg/ml peptide, 75 µM BeSO4 [5] of 947 pg/mL and an IL-2 secretion of AV22 hybridoma, 0.5 µg/ml peptide, 75 µM BeSO4 [6] of 29.3 pg/mL. The IL-2 secretion of AV22 hybridoma, 0.5 µg/ml peptide, 75 µM BeSO4 [7] was 997 pg/mL, the IL-2 secretion of AV22 hybridoma, 0.5 µg/ml peptide, 75 µM BeSO4 [8] was 22.4 pg/mL and the IL-2 secretion of AV22 hybridoma, 0.5 µg/ml peptide, 75 µM BeSO4 [11] was 622 pg/mL. The IL-2 secretion of AV22 hybridoma, 0.5 µg/ml peptide, 75 µM BeSO4 [13] was 21.7 pg/mL, the IL-2 secretion of AV22 hybridoma, 0.5 µg/ml peptide, 75 µM BeSO4 [14] was 4.6 pg/mL and the IL-2 secretion of AV22 hybridoma, 0.5 µg/ml peptide, 75 µM BeSO4 [16] was 5.1 pg/mL. For the same substance, the IL-2 secretion of AV22 hybridoma, 0.5 µg/ml peptide, 75 µM BeSO4 [17] was 15.6 pg/mL, the IL-2 secretion of AV22 hybridoma, 0.5 µg/ml peptide, 75 µM BeSO4 [24] was 4.6 pg/mL and the IL-2 secretion of AV22 hybridoma, 0.5 µg/ml peptide, 75 µM BeSO4 [18] was 4.1 pg/mL. The IL-2 secretion of AV22 hybridoma, 0.5 µg/ml peptide, 75 µM BeSO4 [25] was 4.1 pg/mL, the IL-2 secretion of AV22 hybridoma, 0.5 µg/ml peptide, 75 µM BeSO4 [19] was 716 pg/mL and the IL-2 secretion of AV22 hybridoma, 0.5 µg/ml peptide, 75 µM BeSO4 [26] was 4.6 pg/mL. The IL-2 secretion of AV22 hybridoma, 0.5 µg/ml peptide, 75 µM BeSO4 [21] was 17.4 pg/mL.
